Laboratory results from patent publication US20070014810A1, “Inducing cellular immune responses to human papillomavirus using peptide and nucleic acid compositions” (priority 2003, published 2007).

Tests used:
HLA-A*2902 (human) [1] = assay: inhibition of 125I-labelled probe peptide binding to purified HLA, gel filtration; standard peptide (allele listed again under supertype A24)
HLA-A*2902 (human) [2] = assay: inhibition of 125I-labelled probe peptide binding to purified HLA, gel filtration; standard peptide
HLA-A*0101 (human) = assay: as above
HLA-DRB1*0901 (human) = target: T1, HLA-DRB1*0901 (human)
T1 chain 1: not shown
T1 chain 2: not shown

HLA-A*3002 (human) [3] = assay: inhibition of 125I-labelled probe peptide binding to purified HLA, gel filtration; standard peptide (allele listed again under supertype A24)
HLA-A*3002 (human) [4] = assay: inhibition of 125I-labelled probe peptide binding to purified HLA, gel filtration; standard peptide

Binder: YTAVVPLVY (modifications not checked)
- IC50 (HLA-A*2902 (human) [1]): 5 nM
- IC50 (HLA-A*2902 (human) [2]): 5 nM
- IC50 (HLA-A*0101 (human)): 5 nM

Binder: AKFVAAWTLKAAA (modifications not checked)
- IC50 (HLA-DRB1*0901 (human)): 75 nM

Binder: RISGVDRYY (modifications not checked)
- IC50 (HLA-A*3002 (human) [3]): 3 nM
- IC50 (HLA-A*3002 (human) [4]): 3 nM
